Measurements: the supplement of paper PMC10567573
± gives the standard deviation.

Assay: protein stability index of a GFP-peptide fusion (GPS, HEK-293T) (PSI 1-6); higher = more stable
Conditions: c terminus: a fixed tail appended
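Also: 24-mer peptide tiles fused after GFP, lentivirally expressed, FACS-sorted into six equal bins by GFP/DsRed ratio, decoded by Illumina sequencing, PSI is the read-weighted mean bin number.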

Sequence | protein stability index (treatment: DMSO) | protein stability index (treatment: MLN4924 1 uM, 8 h)
ILKLEQENCTLVTTFRGHTGGVTA [WDFY2] | 2.79 ± 0.13 | 3.51 ± 0.5
ILKRLLKEQHLWDVDLLDSKVIEI [DLC1] | 2.44 ± 1 | 2.02 ± 0.68
ILNSMNSLRKSNTLCDVTLRVEQK [KLHL12] | 2.65 ± 0.18 | 2.9 ± 0.33
ILQLEECCTHNNSATLSWKQPPLS [TRIM9] | 2.67 ± 0.42 | 2.78 ± 0.23
INCKGRSKSNLGWTPLHLACYFGH [OSBPL1A] | 2.63 ± 0.32 | 2.28 ± 0.32
INQLTFIMDANQTYLVSERLEREE [FAF2] | 3.17 ± 0.15 | 3.15 ± 0.21
INRLVGLQNTYMGYLDYRKKAIKD [GLT8D2] | 2.7 ± 0.3 | 3.01 ± 0.05
INSRRWCSNLTPNVPNVCRMYCSD [SPACA3] | 2.13 ± 0.26 | 2.42 ± 0.33
IPANVSNCNWFCEGSFNGSEKETM [KRT33B] | 4.19 ± 0.15 | 4.07 ± 0.3
IPPYSRASLKGYQWLKDKILSEEG [KCNAB2] | 2.64 ± 0.45 | 3.02 ± 0.54
IQGNIEYSCPATNECEITKRRRKS [ESRRG] | 4.85 ± 0.15 | 5.13 ± 0.25
IQSKDGKSPLHMTAVHGRFTRSQT [ANKRD44] | 3.84 ± 0.32 | 3.9 ± 0.36
IREQIKKYRRHFLRFCHNNKKAKR [EIF5] | 2.35 ± 0.19 | 2.33 ± 0.16
IRLCDMRASALCDRHTKFFEEPED [PPP2R2B] | 3.59 ± 0.11 | 3.77 ± 0.2
ISDRYSPELRQLVLSLLSLEPAQR [NEK8] | 2.66 ± 0.38 | 2.3 ± 0.39
ISKMEPLEIPVETITSEVIEKCTT [CRY1] | 4.08 ± 0.64 | 4.32 ± 0.2
ISLVKREHDFLDRDAIEALCRRLN [DLC1] | 2.69 ± 0.18 | 2.8 ± 0.42
ITALLNVSRRTSEACMTHLHYKWI [DUSP5] | 2.75 ± 0.53 | 2.54 ± 0.32
ITAPTEVEVMDETNCQKVLNMWCC [CSNK1G3] | 2.84 ± 0.29 | 2.98 ± 0.29
ITNQEELWKMKPRRNLEEDDYLHK [STEAP1] | 4.22 ± 0.41 | 4.02 ± 0.26
ITTLRVPVLRPMDLMVEATPRRVF [PPP2R2B] | 2.52 ± 0.17 | 2.71 ± 0.27
IVCAQSSQSLWNRLSVLLNLLPAA [SMG5] | 2.8 ± 0.31 | 2.99 ± 0.28

Sequence | protein stability index (treatment: DMSO) | protein stability index (treatment: MLN4924 1 uM, 8 h)
IVETLCIIWFSFELVVRFFACPSK [KCNA1] | 3.11 ± 0.19 | 3.15 ± 0.32
IVRLRTIGELLAPAAPFDKKCGRE [WSB1] | 2.64 ± 0.2 | 2.85 ± 0.34
IVRRRSRDVPESPQHAADTPKSGE [YJU2B] | 5.06 ± 0.25 | 5.21 ± 0.22
IVSNFNYFYHRETENEEQTQLTQN [KCNA4] | 3.03 ± 0.12 | 3.38 ± 0.25
IVSQKQIADRAAHDESPGNNVVDI [RAB11B] | 5.16 ± 0.12 | 5.12 ± 0.1
IWDINNQICTVKDIKAEPQPLSPA [ATF6] | 3.96 ± 0.21 | 4.1 ± 0.24
IYVKLIEECTDLQKEGEFSTCFTE [OAS1] | 2.37 ± 0.2 | 2.26 ± 0.28
KCGIHSMFPLHLAALNAHSDCCRK [ANKRD44] | 2.36 ± 0.2 | 2.62 ± 0.33
KCLQGNADGDGGGGQCCRRQDSPS [PCDHGC5] | 5.25 ± 0.29 | 5.21 ± 0.1
KDILGFAVMFFIVFFAYAQLGYLL [PKD2L1] | 2.81 ± 0.42 | 2.93 ± 0.54
KDREYTDIIRKQVLGTKVDAERDG [CDC34] | 5.08 ± 0.21 | 4.99 ± 0.18
KDTVICAMKITQEPQGLGYWEAWR [SPACA3] | 2.27 ± 0.49 | 2.22 ± 0.23
KDVKERFSGSLVAALSATGPRFLA [TMEM175] | 2.88 ± 0.55 | 2.73 ± 0.68
KEAVAALPPDVTTQSVMGFDPLPP [TCF25] | 4.79 ± 0.29 | 4.89 ± 0.26
KEMFTVGCCVFAFLVGLLFVQRSG [SLC6A17] | 2.38 ± 0.66 | 3.13 ± 0.61
KENREEARFQDKQYSSHHTAEKRK [CHGB] | 5.21 ± 0.41 | 4.89 ± 0.34
KGDKCKFSHDLTLERKCEKRSVYI [ZC3H15] | 2.74 ± 0.22 | 2.63 ± 0.067
KGHNTPKDIAHFWELGGGTSLLDL [DYNC2LI1] | 3.02 ± 0.28 | 3.2 ± 0.11
KIGDTKRNTPIEALCENFPEEMAT [CSNK1G1] | 5.14 ± 0.2 | 5.31 ± 0.2
KIKVRFSFFLQIYLIMIFLGLYIN [HACD3] | 3 ± 0.73 | 2.29 ± 0.96
KIRDWYQRQAPGPARDYSQYYRTI [KRT17] | 2.19 ± 0.37 | 2.42 ± 0.31
KKFQSEKAAGSVSKSTQFEYAWCL [FIS1] | 2.12 ± 0.22 | 2.33 ± 0.13

Sequence | protein stability index (treatment: DMSO) | protein stability index (treatment: MLN4924 1 uM, 8 h)
KKKAIQEEEERDQALQAKASLTIP [YJU2B] | 5.27 ± 0.22 | 5.4 ± 0.21
KKKKKQKNKKSSTGEASENGLEDI [TCF25] | 5.04 ± 0.097 | 4.49 ± 0.25
KKKKTKKIKEKYIDQEELNKTKPI [HSP90AB1] | 4.28 ± 0.26 | 4.53 ± 0.31
KKRRAQQAPPQDSSNKKEKKVLNH [DYRK1B] | 5.2 ± 0.32 | 5.3 ± 0.13
KKVYLTGFALDILFAIANGFSPSY [SLC22A15] | 2.68 ± 0.28 | 3.42 ± 0.22
KLASHTRDTTGVSQMFPSSKARTK [FBF1] | 4.39 ± 0.16 | 4.58 ± 0.053
KLILTSSASVIFEGVDIKNGTEDL [NSDHL] | 3.13 ± 0.33 | 3.27 ± 0.22
KLLKSMPILQGQIDALLEFDVHPN [SNAP91] | 2.12 ± 0.21 | 2.33 ± 0.17
KLNEQSPTRCTLEAGAMTFHYIIE [SEC22B] | 2.38 ± 0.75 | 2.25 ± 0.46
KLSFRARAYGFRGPGPQLRRGWRP [CHGA] | 3.01 ± 0.2 | 3.08 ± 0.29
KNDVFICGGYNGEVILGDIWKLNL [KLHDC10] | 2.6 ± 0.84 | 2.33 ± 0.74
KNKMMVCQVGGIEALVRTVLRAGD [CTNNB1] | 2.51 ± 0.45 | 2.22 ± 0.21
KNYFQHREFSFTLKDDIYIRYQSF [PRIM1] | 2.22 ± 0.9 | 2.26 ± 0.87
KQASNLETAIADAEQRGDNALKDA [KRT71] | 5.66 ± 0.18 | 5.62 ± 0.22
KRKMHLVFEYCDHTLLNELERNPN [CDKL4] | 2.26 ± 0.46 | 2.51 ± 0.51
KRRPKREKHPKKPEPQQKAPLVPP [SRPK2] | 4.948 ± 0.035 | 4.99 ± 0.19
KRRVALSPVTENSTSLSFLDSCNS [MYBL2] | 3.65 ± 0.2 | 3.92 ± 0.34
KSALGAMGQWQLEVGDPAPLGAGN [DPCD] | 3.98 ± 0.21 | 3.96 ± 0.27
KSDSPTGDVLLDETLKHIKATEPT [GOLPH3L] | 5.16 ± 0.27 | 5.26 ± 0.15
KSHVMDQAINNAINYLGAESLRPL [IKZF1] | 2.58 ± 0.24 | 2.49 ± 0.31
KSISPWKSPPQLRQFLPEEFMKTL [DENND6A] | 2.47 ± 0.088 | 2.61 ± 0.3
